Assay results as given in article PMC4106346, “The Oligomeric States of the Purified Sigma-1 Receptor Are Stabilized by Ligands” (The Journal of Biological Chemistry, 2014).

B1: TM2 domain of in the TOXCAT construct (between MBP and ToxR) [guinea pig] / itself (parent)
chain: WVFVNAGGWMGAMCLLHASL

Variants of: B1
Assay: TOXCAT
Settings: with itself;; read off a plot

Point of comparison: WVFVNALGWMGAMCLLHASL [chain 1 G7L], response 77 %GpA. Against it:
- WVFVNAIGWMGAMCLLHASL [chain 1 G7I] — higher, 94 %GpA
- WVFVNALLWMGAMCLLHASL [chain 1 G7L G8L] — lower, -2.7 %GpA
- WVFVNAGIWMGAMCLLHASL [chain 1 G8I] — higher, 100 %GpA
- WVFVNAGLWMGAMCLLHASL [chain 1 G8L] — higher, 89 %GpA
- WVFVNAGGWMGAMCLLAASL [chain 1 H17A] — lower, 20 %GpA
